Measured values as given in article PMC11040147.
Where two headings read alike, the source gives them in different places.

Columns and labels:
Experiment in all cases: EMSA
SF3B4 [1] = target: T1, SF3B4 (human? (HeLa cDNA), UniProt Q15427 1-424)
SF3B4 [2] = target: T1, SF3B4; remark: listed apart in the source
SF3B4 [3] = target: T1, SF3B4; remark: listed apart in the source

T1 sequence (Q15427 whole entry): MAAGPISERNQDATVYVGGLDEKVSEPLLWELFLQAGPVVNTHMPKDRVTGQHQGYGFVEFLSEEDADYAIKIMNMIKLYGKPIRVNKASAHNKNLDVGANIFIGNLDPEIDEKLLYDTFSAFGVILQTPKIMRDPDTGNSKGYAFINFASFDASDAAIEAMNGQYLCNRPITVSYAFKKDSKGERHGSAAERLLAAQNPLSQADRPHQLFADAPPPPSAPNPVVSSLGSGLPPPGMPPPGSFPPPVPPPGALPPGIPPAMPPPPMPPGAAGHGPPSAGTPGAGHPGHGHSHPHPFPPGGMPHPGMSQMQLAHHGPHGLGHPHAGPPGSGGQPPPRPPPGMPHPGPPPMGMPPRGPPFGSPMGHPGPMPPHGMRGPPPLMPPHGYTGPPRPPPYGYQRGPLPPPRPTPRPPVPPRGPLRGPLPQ

Question: Does GGTTAGGGTTAGGGTTAGGGTTAGGGTTAG (structured_DNA) [hTelo] bind (SF3B4 [1])?
Answer: Result: binds

Question: Does GGGAGGUGGGAGCCGAGGGUGGG (structured_RNA) [G4-INPPL1] bind (SF3B4 [2])?
Answer: Result: binds

Question: Does AGAGUGAAGUCUGAAGCGCUGAG (ssRNA) [PPP6R2-mut] bind (SF3B4 [3])?
Answer: Result: no binding
